Source: patent publication US20110020842

Test system: T1, peptide TRPM7p (Ac-RKKYRIVWKSIFRRFL)
T1 sequence: RKKYRIVWKSIFRRFL

TRPM7 kinase
fold increase in activity as compared to peptide MH-U: 30 to 35 fold increase in activity
phosphorylation at a single substrate concentration (100 µM): both peptides are efficiently phosphorylated by their respective kinases
